Series [1] has as its target T1, CUG-BP2 RRM3 wild-type (UniProt O95319 416-508, Y508W). The series is described as follows: NMR 15N-HSQC titration; 20 mM K phosphate pH 5.8, 10 mM NaCl, 0.1% beta-mercaptoethanol, 25 C (NMR titrations and ITC); hnRNP A1: 10 mM Na phosphate pH 6.5, 10 mM beta-mercaptoethanol. Particulars: protein: recombinant.
Series [2] has as its target T1, CUG-BP2 RRM3 wild-type. The series is described as follows: NMR 15N-HSQC titration; 25 C; multiple registers; 20 mM K phosphate pH 5.8, 10 mM NaCl, 0.1% beta-mercaptoethanol, 25 C (NMR titrations and ITC); hnRNP A1: 10 mM Na phosphate pH 6.5, 10 mM beta-mercaptoethanol. Particulars: protein: recombinant.
The target in series [3] is T2, CUG-BP2 RRM3 Y428A (UniProt O95319 416-508, Y428A;Y508W). The experiment in a line: ITC; 25 C; 20 mM K phosphate pH 5.8, 10 mM NaCl, 0.1% beta-mercaptoethanol, 25 C (NMR titrations and ITC); hnRNP A1: 10 mM Na phosphate pH 6.5, 10 mM beta-mercaptoethanol. The conditions noted are these: protein: recombinant; tags: His-tag (pET28a).
Series [4] has as its target T3, CUG-BP2 RRM3 F455A (UniProt O95319 416-508, F455A;Y508W). The series is described as above. Particulars: protein: recombinant; tags: His-tag (pET28a).
Series [5] deals with T4, CUG-BP2 RRM3 H429A (UniProt O95319 416-508, H429A;Y508W). The series is described as above. Particulars: protein: recombinant; tags: His-tag (pET28a).
Series [6] has as its target T1, CUG-BP2 RRM3 wild-type. The series is described as above. Particulars: protein: recombinant.
Series [7] addresses T1, CUG-BP2 RRM3 wild-type. The series is described as follows: NMR 15N-HSQC titration; 25 C; RNA variant series; 20 mM K phosphate pH 5.8, 10 mM NaCl, 0.1% beta-mercaptoethanol, 25 C (NMR titrations and ITC); hnRNP A1: 10 mM Na phosphate pH 6.5, 10 mM beta-mercaptoethanol. Particulars: protein: recombinant.
Series [8] deals with T1, CUG-BP2 RRM3 wild-type. The series is described as follows: NMR 15N-HSQC titration; protein mutant series; 20 mM K phosphate pH 5.8, 10 mM NaCl, 0.1% beta-mercaptoethanol, 25 C (NMR titrations and ITC); hnRNP A1: 10 mM Na phosphate pH 6.5, 10 mM beta-mercaptoethanol. Particulars: protein: recombinant.
Series [9] concerns the target CUG-BP2 RRM3 K495A (UniProt O95319 416-508, K495A;Y508W). The experiment in a line: NMR 15N-HSQC titration; 20 mM K phosphate pH 5.8, 10 mM NaCl, 0.1% beta-mercaptoethanol, 25 C (NMR titrations and ITC); hnRNP A1: 10 mM Na phosphate pH 6.5, 10 mM beta-mercaptoethanol. Particulars: protein: recombinant; tags: His-tag (pET28a).
For series [10], the target named is CUG-BP2 RRM3 K453A (UniProt O95319 416-508, K453A;Y508W). The series is described as above. Particulars: protein: recombinant; tags: His-tag (pET28a).
In series [11] the target is T2, CUG-BP2 RRM3 Y428A. The description is as above. The conditions noted are these: protein: recombinant; tags: His-tag (pET28a).
The target in series [12] is T3, CUG-BP2 RRM3 F455A. The series is described as above. The conditions noted are these: protein: recombinant; tags: His-tag (pET28a).
The target of series [13] is CUG-BP2 RRM3 K499A (UniProt O95319 416-508, K499A;Y508W). The description is as above. The conditions noted are these: protein: recombinant; tags: His-tag (pET28a).
The target in series [14] is CUG-BP2 RRM3 Q497A (UniProt O95319 416-508, Q497A;Y508W). Described as above. The conditions noted are these: protein: recombinant; tags: His-tag (pET28a).
For series [15], the target named is T4, CUG-BP2 RRM3 H429A. The series is described as above. The conditions noted are these: protein: recombinant; tags: His-tag (pET28a).
The target of series [16] is CUG-BP2 RRM3 F426A (UniProt O95319 416-508, F426A;Y508W). The description is as above. The conditions noted are these: protein: recombinant; tags: His-tag (pET28a).
Series [17] concerns the target T1, CUG-BP2 RRM3 wild-type. The series is described as follows: ITC; 20 mM K phosphate pH 5.8, 10 mM NaCl, 0.1% beta-mercaptoethanol, 25 C (NMR titrations and ITC); hnRNP A1: 10 mM Na phosphate pH 6.5, 10 mM beta-mercaptoethanol. Particulars: protein: recombinant. Background: Isothermal titration calorimetry measures the heat released or taken up as one component is titrated into another.

T1 sequence (O95319 416-508 Y508W): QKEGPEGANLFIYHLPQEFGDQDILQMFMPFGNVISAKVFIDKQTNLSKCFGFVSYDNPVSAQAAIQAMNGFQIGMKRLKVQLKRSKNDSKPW
T2 sequence (O95319 416-508 Y428A/Y508W): as the sequence (O95319 416-508 Y508W) above, with Y13A counted along it
T4 sequence (O95319 416-508 H429A/Y508W): as the sequence (O95319 416-508 Y508W) above, with H14A counted along it
T3 sequence (O95319 416-508 F455A/Y508W): as the sequence (O95319 416-508 Y508W) above, with F40A counted along it
CUG-BP2 RRM3 K495A, sequence (O95319 416-508 K495A/Y508W): as the sequence (O95319 416-508 Y508W) above, with K80A counted along it
CUG-BP2 RRM3 F426A, sequence (O95319 416-508 F426A/Y508W): as the sequence (O95319 416-508 Y508W) above, with F11A counted along it
CUG-BP2 RRM3 K499A, sequence (O95319 416-508 K499A/Y508W): as the sequence (O95319 416-508 Y508W) above, with K84A counted along it
CUG-BP2 RRM3 K453A, sequence (O95319 416-508 K453A/Y508W): as the sequence (O95319 416-508 Y508W) above, with K38A counted along it
CUG-BP2 RRM3 Q497A, sequence (O95319 416-508 Q497A/Y508W): as the sequence (O95319 416-508 Y508W) above, with Q82A counted along it

By Kd is commonly meant the equilibrium constant for the complex coming apart. Regarding UUCAA (ssRNA), the Kd in series [1] was 56 ± 12 µM.
As to AUUUAAUU (ssRNA), the Kd in series [2] was 31 ± 9 µM.
For the molecule UGUGU (ssRNA), the Kd was determined as 0.31 ± 0.01 µM in series [3], 10.4 ± 0.87 µM in series [4], 0.27 ± 0.05 µM in series [5] and 1.04 ± 0.04 µM in [6].
As to UUUAC (ssRNA), in series [1], the Kd came to 56 ± 8 µM.
On the same count and under the same terms, then CUUAA (ssRNA), with 54 ± 9 µM; and UCUAA (ssRNA), with 76 ± 27 µM.
The same measure, in the same setting: then UUUCA (ssRNA), with 73 ± 13 µM.
In the case of UUUAA (ssRNA), the Kd is 66 ± 14 µM in series [7]; 62 ± 12 µM in series [8]; 63 ± 6 µM in [9]; 78 ± 13 µM in [10]; 27 ± 3 µM in series [11]; 41 ± 5 µM in series [12]. For the same molecule, the Kd worked out at 91 ± 18 µM in series [13]; 60 ± 10 µM in series [14]; 30 ± 4 µM in [15]; 139 ± 10 µM in series [16]; 18 µM in series [17].

The record behind these values is paper PMC5608764, “Aromatic side-chain conformational switch on the surface of the RNA Recognition Motif enables RNA discrimination”.
